From patent publication US12281155

How the values were obtained:
[1] = target: T1, recombinant SARS-CoV-2 Spike RBD domain, Wuhan (SARS-CoV-2); assay: ELISA on coated RBD; settings: remark: other sources report otherwise
[2] = target: T1, recombinant SARS-CoV-2 Spike RBD …; assay: competition ELISA, blocking of RBD binding to ACE2 ectodomain; settings: remark: other sources report otherwise

B1: SPK002 antibody (parental version Cv2.3194 described in WO 2022/228827) (antibody, V domains shown)
VH: EVQLVESGGGLIQPGGSLRLSCAASGITVTSNYMSWVRQAPGKGLEWVSVIYPGGSTFYADSVKGRFTISRDNSKNTLYLQMNSLRAEDTAVYYCARDLVVYGMDVWGQGTTVTVS
VL: EIVLTQSPGTLSLSPGERATLSCRASQSVSSSYLAWYQQKPGQAPRLLIYGASSRATGIPGRFSGSGSGTDFTLTISRLEPEDFAIYYCQQGVTFGGGTKVEIK
Binding AUC [1]: 34
Blocking % [2]: 88%
